Substrate: NCCCC(=O)O
Experiment: hBGT1 direct uptake assay (LC-MS-MS)
Assay type: cell-based, human
Details: other: HEK-TREx-hBGT1 cells induced to express hBGT1
Procedure: A modified direct uptake assay was developed to determine the ability of test compounds to be transported into HEK-TREx cells induced to over-express hBGT1. Four concentrations (bracketing the affinity as measured by competition assays) per compound were routinely tested. Non-specific uptake was determined by measuring the uptake into cells not induced to express the transporter (“no tet”).
Typically, four concentrations bracketing the IC50 were tested. The highest test concentration for each compound was made in an Eppendorf tube and diluted into HBSS. The samples were robustly vortexed and centrifuged for 10 minutes at 13,200 rpm to spin down any precipitate. […] Three additional 2-fold dilutions were made in the subsequent rows (B-D or F-G) in HBSS.
An internal standard of 50 μM propranolol in 50:50 ethanol:water was also prepared. To prepare standard curves, several concentrations of the test compounds were diluted into HEK cell extract (prepared from tet-treated, mock-incubated, and extracted cells as described below) with a final internal standard concentration of 5 μM. Standards of 10, 5, 1, 0.5, 0.1, 0.05, 0.01, and 0.005 μM were routinely run for each test compound. […]

B1: hBGT1 (Homo sapiens) (protein)
chain: MDGKVAVQECGPPAVSWVPEEGEKLDQEDEDQVKDRGQWTNKMEFVLSVAGEIIGLGNVWRFPYLCYKNGGGAFFIPYFIFFFVCGIPVFFLEVALGQYTSQGSVTAWRKICPLFQGIGLASVVIESYLNVYYIIILAWALFYLFSSFTSELPWTTCNNFWNTEHCTDFLNHSGAGTVTPFENFTSPVMEFWERRVLGITSGIHDLGSLRWELALCLLLAWVICYFCIWKGVKSTGKVVYFTATFPYLMLVILLIRGVTLPGAYQGIIYYLKPDLFRLKDPQVWMDAGTQIFFSFAICQGCLTALGSYNKYHNNCYKDCIALCFLNSATSFVAGFVVFSILGFMSQEQGVPISEVAESGPGLAFIAFPKAVTMMPLSQLWSCLFFIMLIFLGLDSQFVCVECLVTASIDMFPRQLRKSGRRELLILTIAVMCYLIGLFLVTEGGMYIFQLFDYYASSGICLLFLSLFEVVCISWVYGADRFYDNIEDMIGYRPWPLVKISWLFLTPGLCLATFLFSLSKYTPLKYNNVYVYPPWGYSIGWFLALSSMVCVPLFVVITLLKTRGPFRKRLRQLITPDSSLPQPKQHPCLDGSAGRNFGPSPTREGLIAGEKETHL
notes: expressed in transfected cells; host or cells: HEK-TREx cells (HEK-TREx-BGT1 inducible line), induced with tetracycline/doxycycline and butyrate
Km: 27 µM

Source: US7704695B2, “Screening of compounds for BGT1 transporter activity” (XenoPort, Inc., priority 2005, dated 2010)
